Where two headings read alike, the source gives them in different places. Bounds are passed on as bounds.

Assay [1] deals with T1, rhesus TNFα (rhesus, UniProt P48094 77-233). Briefly: cell-based or functional assay.
Assay [2] deals with T2, human TNFα (human, UniProt P01375 77-233). Kind of assay: cell-based or functional assay.
In assay [3] the target is T2, human TNFα.
Assay [4] concerns the target T2, human TNFα. Briefly: cell-based or functional assay. This is another data set of the same source.
Assay [5] deals with T2, human TNFα. This is another data set of the same source.
Assay [6] concerns the target T2, human TNFα. This is another data set of the same source.
Assay [7] deals with T2, human TNFα. Briefly: cell-based or functional assay. This is another data set of the same source.
Assay [8] deals with T2, human TNFα. Kind of assay: competition ELISA, biotinylated TNFα (10 ng/ml) pre-incubated with nanobody, binding to coated Enbrel; 50% inhibition. In general terms: An ELISA detects its analyte on a solid surface through an enzyme-linked reagent.
For assay [9], the target named is T2, human TNFα. Briefly: ELISA, biotinylated TNFα on neutravidin, anti-myc detection; 50% binding.
For assay [10], the target named is T2, human TNFα. This is another data set of the same source.
The target of assay [11] is T2, human TNFα. Kind of assay: cell-based or functional assay. This is another data set of the same source.
The target in assay [12] is T3, mouse serum albumin (mouse, UniProt P07724 25-608).
T3 construct: On the Biacore chip; also called mouse albumin
T3 sequence (P07724 25-608 limits assumed): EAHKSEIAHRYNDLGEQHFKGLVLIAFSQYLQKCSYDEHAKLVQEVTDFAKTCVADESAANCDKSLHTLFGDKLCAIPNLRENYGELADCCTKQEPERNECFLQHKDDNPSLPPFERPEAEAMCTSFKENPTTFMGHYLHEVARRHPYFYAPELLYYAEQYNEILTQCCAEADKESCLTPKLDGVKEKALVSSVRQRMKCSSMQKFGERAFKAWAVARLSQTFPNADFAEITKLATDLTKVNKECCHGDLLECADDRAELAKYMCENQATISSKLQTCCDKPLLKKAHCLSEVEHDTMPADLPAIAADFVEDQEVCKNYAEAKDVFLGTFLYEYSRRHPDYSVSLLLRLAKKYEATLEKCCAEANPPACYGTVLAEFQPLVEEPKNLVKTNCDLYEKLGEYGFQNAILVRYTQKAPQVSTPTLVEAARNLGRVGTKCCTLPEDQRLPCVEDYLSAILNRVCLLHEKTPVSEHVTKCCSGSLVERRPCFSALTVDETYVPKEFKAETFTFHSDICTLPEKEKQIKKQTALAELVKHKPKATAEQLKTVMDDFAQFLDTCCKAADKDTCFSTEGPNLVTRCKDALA

The target in another assay is T4, rhesus serum albumin (rhesus, UniProt Q28522 17-600).
T4 construct: On the Biacore chip; also called rhesus albumin
T4 sequence (Q28522 17-600 limits assumed): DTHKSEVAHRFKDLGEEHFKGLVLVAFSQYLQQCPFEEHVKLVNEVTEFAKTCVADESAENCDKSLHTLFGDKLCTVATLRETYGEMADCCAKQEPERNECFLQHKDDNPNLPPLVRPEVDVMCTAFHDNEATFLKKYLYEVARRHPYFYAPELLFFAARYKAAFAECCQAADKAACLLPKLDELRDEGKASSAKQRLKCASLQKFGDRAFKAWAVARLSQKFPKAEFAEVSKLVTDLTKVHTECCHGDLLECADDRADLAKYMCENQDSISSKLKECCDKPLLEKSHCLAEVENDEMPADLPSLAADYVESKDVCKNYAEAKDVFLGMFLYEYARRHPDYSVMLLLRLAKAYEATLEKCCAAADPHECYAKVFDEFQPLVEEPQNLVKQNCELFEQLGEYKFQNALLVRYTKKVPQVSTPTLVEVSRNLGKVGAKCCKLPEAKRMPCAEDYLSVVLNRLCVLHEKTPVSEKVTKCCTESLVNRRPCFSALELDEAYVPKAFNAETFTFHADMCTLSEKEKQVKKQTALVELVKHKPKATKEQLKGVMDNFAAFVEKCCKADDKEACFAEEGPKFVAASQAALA

Another assay addresses T5, human serum albumin (human, UniProt P02768 25-609).
T5 construct: On the Biacore chip; also called human albumin

A further assay addresses Protein A (UniProt P38507 37-477).
In assay [13] the target is T3, mouse serum albumin. The source holds these as a separate data set.
Assay [14] deals with T1, rhesus TNFα. Kind of assay: cell-based or functional assay. This is another data set of the same source.
Assay [15] has as its target T2, human TNFα. Kind of assay: cell-based or functional assay. The source holds these as a separate data set.
Assay [16] deals with T2, human TNFα. Briefly: competition ELISA, biotinylated human TNFα pre-incubated with nanobody, binding to coated Enbrel; 50% inhibition.

T2 sequence (P01375 77-233 limits assumed): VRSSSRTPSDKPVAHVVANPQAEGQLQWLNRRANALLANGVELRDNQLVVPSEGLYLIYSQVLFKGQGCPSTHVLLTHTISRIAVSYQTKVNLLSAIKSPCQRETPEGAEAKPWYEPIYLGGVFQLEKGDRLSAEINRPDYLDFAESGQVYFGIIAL
T1 sequence (P48094 77-233 limits assumed): as the sequence (P01375 77-233 limits assumed) above, with R44T, T72N, R138L counted along it

B1: PMP1G5 (TNF2) (VHH)
VHH: QVQLVESGGGLVQAGGSLRLSCAASGRTFSEPSGYTYTIGWFRQAPGKEREFVARIYWSSGLTYYADSVKGRFTISRDIAKNTVDLLMNSLKPEDTAVYYCAARDGIPTSRSVGSYNYWGQGTQVTVSS
notes: also called WT TNF2; not shown: C-terminal c-myc tag and (His)6 tag coded by vector pAX051
The term koff denotes the first-order rate constant of dissociation. Low values mean a long-lived complex, high ones a short-lived complex. A word on the IC50: it is the concentration that inhibits the measured activity by half. A lower IC50 goes with greater potency. As a reminder, the EC50 is the midpoint of the concentration-response curve. Read a high EC50 as weaker potency. As for B1, the “EC50 in nM (mean); L929s + Act D cytotoxicity assay, rhesus TNFα @ 0.5 ng/ml” value with rhesus TNFα [1] is above 50 nM. Further, the “EC50 in nM (mean); L929s + Act D cytotoxicity assay, human TNFα @ 0.5 ng/ml” value with human TNFα [2] came to 1.41 nM. Also, the koff in the assay with human TNFα [3] was determined as 0.00133 s⁻¹; with human TNFα [5] it was 0.000359 s⁻¹; with human TNFα [6], 0.00085 s⁻¹; with human TNFα [10], 0.00083 s⁻¹. Besides, the “EC50 in nM; alphaKYM cell assay (10000 c/w), human TNFa @ 1 ng/ml” value (“EC50 in nM; alphaKYM cell assay” for short) with human TNFα [4] was 4.24 nM. The “EC50 in nM (mean); L929s + Act D cytotoxicity assay, human TNFa @ 0.5 ng/ml” value (“EC50 in nM (mean) … human TNFa @ 0.5 ng/ml” below) in the assay with human TNFα [7] and in the assay with human TNFα [11] was 1.41 nM in each case. In the assay with human TNFα [8], the IC50 was determined as 3.5 µg/mL. In the assay with human TNFα [9], this molecule came in with an EC50 of 0.02 µg/mL.

B2: PMP6A8 (ALB2) (VHH)
VHH: AVQLVESGGGLVQGGGSLRLACAASERIFDLNLMGWYRQGPGNERELVATCITVGDSTNYADSVKGRFTISMDYTKQTVYLHMNSLRPEDTGLYYCKIRRTWHSELWGQGTQVTVSS
notes: Class C serum albumin nanobody; not shown: C-terminal c-myc tag and (His)6 tag coded by vector pAX051
As usually defined, the Kd is the concentration at which binding is half-saturated. A low value points to higher affinity. In general, kon refers to the rate constant with which the complex forms. A higher kon goes with faster complex formation. In the assay with mouse serum albumin [12], B2 returned a Kd of 15.7 nM, a koff of 0.00307 s⁻¹ and a kon of 195000 M⁻¹ s⁻¹. In the assay with rhesus serum albumin, this molecule showed a Kd of 0.036 nM, a koff of 7.12e-05 s⁻¹ and an on-rate constant (kon) of 1.94e+06 M⁻¹ s⁻¹. In the assay with human serum albumin, this molecule returned a dissociation constant Kd of 0.092 nM, an off-rate (koff) of 7.52e-05 s⁻¹ and a kon of 815000 M⁻¹ s⁻¹. Further, the binding result in the assay with Protein A is “no binding (tested: 10 uM)”. The “difference in affinity for human/rhesus versus mouse serum albumin” value with mouse serum albumin [13] stood at 400 fold.

B3: TNF2-GS9-TNF2 (TNF5) (VHH)
chain: QVQLVESGGGLVQAGGSLRLSCAASGRTFSEPSGYTYTIGWFRQAPGKEREFVARIYWSSGLTYYADSVKGRFTISRDIAKNTVDLLMNSLKPEDTAVYYCAARDGIPTSRSVGSYNYWGQGTQVTVSSGGGGSGGGSQVQLVESGGGLVQAGGSLRLSCAASGRTFSEPSGYTYTIGWFRQAPGKEREFVARIYWSSGLTYYADSVKGRFTISRDIAKNTVDLLMNSLKPEDTAVYYCAARDGIPTSRSVGSYNYWGQGTQVTVSS
notes: Bivalent nanobody, 9 AA GlySer linker
With B3, in the assay with human TNFα [4], the “EC50 in nM; alphaKYM cell assay” value worked out at 0.008 nM. Moreover, the “EC50 in nM (mean); L929s + Act D cytotoxicity assay, rhesus TNFa @ 0.5 ng/ml” value in the assay with rhesus TNFα [14] is 35 nM. Besides, in the assay with human TNFα [15], the “EC50 in nM (mean) … human TNFa @ 0.5 ng/ml” value came to 0.02 nM. Besides, the IC50 in the assay with human TNFα [16] turned out to be 0.0063 µg/mL.

B4: TNF2-GS30-TNF2 (TNF8) (VHH)
chain: QVQLVESGGGLVQAGGSLRLSCAASGRTFSEPSGYTYTIGWFRQAPGKEREFVARIYWSSGLTYYADSVKGRFTISRDIAKNTVDLLMNSLKPEDTAVYYCAARDGIPTSRSVGSYNYWGQGTQVTVSSGGGGSGGGGSGGGGSGGGGSGGGGSGGGGSQVQLVESGGGLVQAGGSLRLSCAASGRTFSEPSGYTYTIGWFRQAPGKEREFVARIYWSSGLTYYADSVKGRFTISRDIAKNTVDLLMNSLKPEDTAVYYCAARDGIPTSRSVGSYNYWGQGTQVTVSS
notes: Bivalent nanobody, 30 AA GlySer linker
With B4, the “EC50 in nM; alphaKYM cell assay” value with human TNFα [4] was 0.013 nM. Also, the “EC50 in nM (mean); L929s + Act D cytotoxicity assay, rhesus TNFa @ 0.5 ng/ml” value in the assay with rhesus TNFα [14] was found to be 1.03 nM. In addition, in the assay with human TNFα [15], the “EC50 in nM (mean) … human TNFa @ 0.5 ng/ml” value came to 0.007 nM. Moreover, the IC50 in the assay with human TNFα [16] is 0.023 µg/mL.

(Values after patent US20200079844A1 (Ablynx, published 2020).)
